In paper PMC9170038, “Crowdsourced RNA design discovers diverse, reversible, efficient, self-contained molecular switches”:

B1: Eterna 7741560 (Exclusion - FMN A) (ssRNA)
RNA: UCCUAGGCUCGAAAGAGCCUAGGAUUGACUCAGGAUAUCCGGAAACGGAGAAGGGAGUCACUAGUGAUGUUAGGGAUUCCCUAUU
B2: Eterna 7744734 (Exclusion - Tryptophan A) (ssRNA)
RNA: CGUGAAUGUCGUCAGUCAUCGGUCCAUGCACGAGGACCGGUACGGCCGCCACUCGAGCGUGGCAGUGAUGUUGCCAGCGCACUAA
B3: Eterna 1618 (Same State - Theophylline A) (ssRNA)
RNA: GAUUGAGUGAUGUUCAAUUAGUAUCUAGAUACCAGAAUGUCUACCUUCCCUUGGCAGCUACUGACGGUGAUCAUUUCGCGCGCAG
B4: Eterna 6461493 (Inverted Same State NG 1) (ssRNA)
RNA: GUGCUUUGGGAGAAGGCCGUAUGCAAAGCAUACGGAGGAUAUUCAUACCGGAAACGGACAUGAGGAUCACCCAUGUGGCACAAA
B5: Eterna 6122649 (Exclusion NG 2) (ssRNA)
RNA: UUAUCUUGUCAAGGAUAUGUUGUAUUGAUCUGAAAACAUGAGGAUCACCCAUGUAUACGGUGGGAACAGAAGGUGAAUGUAGAA
B6: Eterna 6045632 (Brourd's mod of Exclusion 4) (ssRNA)
RNA: CGGGCUGCUGUGAGGAUAUGCCUGUGGGUGCGUGGGUAGAAGGCACAUGAGGAUCACCCAUGUCCUGCAGCUCG
B7: Eterna 7763203 (Exclusion - FMN B) (ssRNA)
RNA: AAAUAACAGGCAGGAUAUGCUUAGUAAUAAGGCCAUAUAUACGUAUAGAGUGAUGUUUUGUACAAAGCAGAAGGGCUAAAUCCAU
B8: Eterna 7689684 (Same State - Theophylline A) (ssRNA)
RNA: UGGAGUUGACGAAAAGUCAACUCCUGAGAUACCAGUGACGAAAGUCACCCUUGGCAGCUCACUGCCAGUGAUGUUGGAAAUAAAA
B9: Eterna 1184 (Exclusion - Theophylline B) (ssRNA)
RNA: AACACCCGCUAUGAUACCAGUGAAGUGAUGUUUUACUCCGGGCGUAAGACAAAGGUCAGCCACCCUUGGCAGCAUAUCCGCGUAU
B10: Eterna 7750603 (Exclusion - Arginine A) (ssRNA)
RNA: GGCCGCAAGGCGAGCGCUCCCACUCCGGAAGGAGCGCCCGUAAGGGCAGGUAGGUCGCCGGAGUGAUGUUCCGGUGGAGGGCUCG
B11: Eterna 7740449 (Exclusion - Theophylline A) (ssRNA)
RNA: AUGUUUUAUAAACUCAUGGUUUCGACAGAUACCAGCUUCGAGAGGAGCCCUUGGCAGCUGCAUGAGUGAUGUUCAUGUACGAAGA
B12: Eterna 6430193 (Small Loop Exclusion NG 3) (ssRNA)
RNA: GUCGAAACCAUACUGGUCGACGGUCAGGAUAUACAUGAGGAUCACCCAUGUGCUAUUGAUACUAUGUAGAAGGGACCCACCGCA
B13: Eterna 7618605 (Same State - Theophylline A) (ssRNA)
RNA: UGUAACAUGAGGAUCACCCAUGUGAGUGAUACCAGAUUAGUAUUAGUCCCUUGGCAGCACAUUGGGCGAGUGUAUAGUCUAUGCG
B14: Eterna 7644049 (Same State - Tryptophan A) (ssRNA)
RNA: ACAUGAGGAUCACCCAUGUCAUGAGGUUCACGAGGACCGGUACGGCCGCCACUCGACAUGAGGGUCACCCGUGAACGGAACACCC
B15: Eterna 7613251 (Exclusion - Tryptophan A) (ssRNA)
RNA: CGGACAUGAGGAUCACCCAUGUCGUCGACGCGAGGACCGGUACGGCCGCCACUCGCAUGCCAAUGAGCGCAUGCGGCCUGGGUAU
B16: Eterna 12069 (Sensor v3, turn-off variant 1) (ssRNA)
RNA: UGUUGUUGUUUCCGUUCUUACAUGAGGAUCACCCAUGUUUCUUGUCGUGCUCGCGUUGCUCGUCAGACUACCUGUUG

biological target: T1, MS2 coat protein, dlFG mutant (Escherichia phage MS2, UniProt P03612, del68-81insG); test: 4 mM Mg2+; no ligand; RNA-MaP array; 100 mM Tris-HCl pH 7.5, 80 mM KCl, 4 mM MgCl2, 0.1 mg/mL BSA, 1 mM DTT, 0.01 mg/mL yeast tRNA, 0.01% Tween-20; protein 1.5 nM to 3 uM; 37 C (Table S3); details: chain copies: 2; label: tethered by stalled RNA polymerase

Binder	Kd
B1	> 3000 nM
B2	> 3000 nM
B3	> 3000 nM
B4	1200 nM
B5	808 nM
B6	1130 nM
UUUGCAGGGCAGUGAUGUUGCCCUGCUUU (ssRNA) [Eterna 8 (K4-8bp_control)]	> 3000 nM
B7	> 3000 nM
B8	> 3000 nM
B9	> 3000 nM
B10	> 3000 nM
B11	> 3000 nM

biological target: T1, MS2 coat protein, dlFG mutant; test: 4 mM Mg2+; FMN 200 uM; RNA-MaP array; 100 mM Tris-HCl pH 7.5, 80 mM KCl, 4 mM MgCl2, 0.1 mg/mL BSA, 1 mM DTT, 0.01 mg/mL yeast tRNA, 0.01% Tween-20; protein 1.5 nM to 3 uM; 37 C (Table S3); details: chain copies: 2; label: tethered by stalled RNA polymerase

Binder	Kd
B12	24.4 nM

biological target: T1, MS2 coat protein, dlFG mutant; test: 4 mM Mg2+; theophylline 2 mM; RNA-MaP array; 100 mM Tris-HCl pH 7.5, 80 mM KCl, 4 mM MgCl2, 0.1 mg/mL BSA, 1 mM DTT, 0.01 mg/mL yeast tRNA, 0.01% Tween-20; protein 1.5 nM to 3 uM; 37 C (Table S3); details: chain copies: 2; label: tethered by stalled RNA polymerase

Binder	Kd
B13	109 nM

biological target: T1, MS2 coat protein, dlFG mutant; test: 4 mM Mg2+; L-tryptophan 2.4 mM; RNA-MaP array; 100 mM Tris-HCl pH 7.5, 80 mM KCl, 4 mM MgCl2, 0.1 mg/mL BSA, 1 mM DTT, 0.01 mg/mL yeast tRNA, 0.01% Tween-20; protein 1.5 nM to 3 uM; 37 C (Table S3); details: chain copies: 2; label: tethered by stalled RNA polymerase

Binder	Kd
B14	20 nM
B15	22.8 nM

biological target: T1, MS2 coat protein, dlFG mutant; test: 4 mM Mg2+; miR-208a RNA 100 nM (AU…UUGU); RNA-MaP array; 100 mM Tris-HCl pH 7.5, 80 mM KCl, 4 mM MgCl2, 0.1 mg/mL BSA, 1 mM DTT, 0.01 mg/mL yeast tRNA, 0.01% Tween-20; protein 1.5 nM to 3 uM; 37 C (Table S3); details: chain copies: 2; label: tethered by stalled RNA polymerase

Binder	Kd
B16	111 nM
